In PMC5981469:

target: envelope protein domain III from dengue virus serotype 2 (DENV2 DIII) (dengue virus serotype 2); assay: ITC

| Substance | Kd | other | stoichiometry N |
| --- | --- | --- | --- |
| scFv4E11 bearing the AlaH55Glu mutation | 12.8 nM | -1.89 kcal/mol | 1.04 sites |
| scFv513 bearing the single mutation GluH55Ala | 28.7 nM | -1.78 kcal/mol | 0.99 sites |
| single-chain variable fragment of humanized monoclonal antibody 513 (scFv513), wild type | 1.64 nM | -4.28 kcal/mol | 1.01 sites |
| single-chain variable fragment of murine monoclonal antibody 4E11 (scFv4E11), wild type | 30.7 nM | -2.09 kcal/mol | 0.96 sites |
